According to US20200283528A1 (NUMAB THERAPEUTICS, published 2020):

T1: Fc tagged human PDL2 (human, UniProt Q9BQ51 20-219)
T1 construct: not shown: Fc tag
T1 sequence (looked up): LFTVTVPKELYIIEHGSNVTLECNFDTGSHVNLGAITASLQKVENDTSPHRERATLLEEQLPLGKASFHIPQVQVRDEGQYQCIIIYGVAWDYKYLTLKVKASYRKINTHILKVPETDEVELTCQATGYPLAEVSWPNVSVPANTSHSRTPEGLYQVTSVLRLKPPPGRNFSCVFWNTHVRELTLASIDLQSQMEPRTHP


Key:
[1] = biological target: T2, human PDL1 expressed on cells (human, UniProt Q9NZQ7 19-290); test: cell-based or functional assay
[2] = biological target: T3, human PDL1 (recombinant, soluble) (human, UniProt Q9NZQ7 19-238); test: PDL1/B7-1 competition ELISA; B7-1 coated, biotinylated PDL1 40 ng/ml
T3 construct: also called hPDL1; hPD-L1
Protocol: (§1) ELISA microplates coated overnight at 4° C. with 4 μg/ml human B7-1 were washed three times with 450 μl wash buffer per well. Plates were blocked for 1 hour at room temperature by adding 300 μl of PBS with 1% BSA and 0.2% tween (dilution buffer) to each well. […] The mixtures were pre-incubated for 1 hour at room temperature under gentle agitation on a rotating mixer (21 rpm) and added to the microplates after 3 wash cycles with 450 μl wash buffer per well. Plates were incubated for 1.5 hours at room temperature under gentle agitation, then 10 ng/ml streptavidin-polyHRP40 was added to each microplate well after three washes with 450 μl of wash buffer per well. After 1 h incubation at RT, plates were washed three times with 450 μl wash buffer and TMB substrate solution was added. The enzymatic reaction was stopped after 6 minutes by addition of 1 M HCl and absorbance was measured at 450 nm using 690 nm as a reference wavelength. For calculation of IC₅₀ values, a four-parameter logistic (4PL) curve fit was performed in Graph Pad Prism using reference subtracted values.

[3] = biological target: T3, human PDL1 (recombinant, soluble); test: PD-1/PDL1 competition ELISA in the presence of 1 mg/ml human serum albumin: biotinylated human PDL1 pre-incubated with the inhibitor, then binding to plate-coated human PD-1; blocked ligand PD-1
Protocol: as §1, with “PD-1” for “B7-1”

[4] = biological target: T3, human PDL1 (recombinant, soluble); test: PDL1/PD-1 competition ELISA; PD-1 coated, biotinylated PDL1 1 ng/ml
Protocol: as §1, with “PD-1” for “B7-1”

[5] = biological target: T3, human PDL1 (recombinant, soluble); test: PDL1/PD-1 competition ELISA with human serum albumin
Protocol: as §1, with “PD-1” for “B7-1”

Fc tagged human PDL1 = biological target: T4, Fc tagged human PDL1 (human, UniProt Q9NZQ7 19-238); test: SPR Biacore T200; Fc tagged PDL1 captured; scFv 0.12-30 nM
T4 construct: also called PDL1-Fc chimeric protein (human); not shown: Fc tag
Protocol: (§2) After each analyte injection cycle, the CM5 sensor chip was regenerated and new antigen was captured. The scFvs were injected as analyte using a dose response multicycle kinetic assay with concentrations of the analyte ranging from 0.12 to 30 nM diluted in running buffer for 5 min and dissociation of the protein was allowed to proceed for 12 min. Obtained sensorgrams were fitted using the 1:1 binding model.

[6] = biological target: T3, human PDL1 (recombinant, soluble); test: PDL1/B7-1 competition ELISA; B7-1 coated; scFv
Protocol: (§3) ELISA plates were coated by adding 50 μl of PBS containing 4 μg/ml B7-1 overnight at 4° C. Next day, plates were washed three times in overflow mode with 450 μl wash buffer (PBS, 0.005% Tween 20) per wells and 300 μl of blocking buffer (PBS, 1% BSA, 0.2% Tween 20) were added to each well for 1 h at RT on a nutating mixer. […] ELISA pates were washed 3 times in overflow mode with 450 μl wash buffer and two times 50 μl of each dilution was added in adjacent wells of the ELISA plates in order to generate duplicates. Plates were incubated 90 minutes at RT under gentle agitation. After three washes with 450 μl of washing buffer, 50 μl of streptavidin-polyHRP40 was added to each wells of the ELISA plate. After 1 h incubation at RT, plates were washed three times with 450 μl wash buffer and developed for 5 to 10 minutes after addition of 50 μl TMB. Finally, the enzymatic reaction was stopped by addition of 50 μl of 1 M HCl and plate was read at 450 nm using 690 nm as a reference wavelength.

[7] = biological target: cynomolgus PDL1, recombinant (Sino Biological) / PDL1-Fc chimeric protein (cynomolgus (Macaca fascicularis), UniProt G7PSE7 19-238); test: SPR Biacore T200; cynomolgus PDL1 (Sino Biological) captured; scFv as analyte
Protocol: as §2

[8] = biological target: T2, human PDL1 expressed on cells; test: flow cytometry on CHO-PDL1 cells; scFv detected by APC labelled protein-L
[9] = biological target: T3, human PDL1 (recombinant, soluble); test: PDL1/PD-1 competition ELISA; PD-1 coated; scFv
Protocol: as §3, with “4 μg/ml PD-1 overnight at” for “4 μg/ml B7-1 overnight at”, “μl of 10 ng/ml streptavidin-polyHRP40 were” for “μl of streptavidin-polyHRP40 was”, “ng/ml streptavidin-polyHRP40 were added to” for “of streptavidin-polyHRP40 was added to”, “the ELISA plates. After 1” for “the ELISA plate. After 1”

[10] = biological target: T2, human PDL1 expressed on cells; test: cell-based or functional assay; remark: listed apart in the source
Fc tagged human PDL2 = biological target: T1, Fc tagged human PDL2; test: SPR Biacore T200; Fc tagged human PDL2 captured; scFv as analyte
Protocol: Humanized scFvs were tested for binding to PDL2 by SPR analysis on a T200 device (Biacore, GE Healthcare). In this experiment, Fc tagged human PDL2 was captured using the Human Antibody Capture kit from GE healthcare. After each analyte injection cycle the CM5 sensor chip was regenerated and new antigen was captured. The scFvs were injected as analyte at a concentration of 180 nM diluted in running buffer for 5 min and dissociation of the protein was allowed to proceed for 12 min.

Sequence of cynomolgus PDL1, recombinant (Sino Biological) / PDL1-Fc chimeric protein (G7PSE7 entry or part of it mutant limits assumed): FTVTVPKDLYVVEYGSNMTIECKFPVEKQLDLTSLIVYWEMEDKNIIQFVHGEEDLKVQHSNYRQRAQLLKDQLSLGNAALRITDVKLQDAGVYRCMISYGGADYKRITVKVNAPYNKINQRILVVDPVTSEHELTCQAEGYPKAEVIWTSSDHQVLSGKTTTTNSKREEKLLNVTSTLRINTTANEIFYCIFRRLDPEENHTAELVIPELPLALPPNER

IC50 [2] [µg/mL]	IC50 [4] [µg/mL]	koff (Fc tagged human PDL1) [s⁻¹]	IC50 [6] [µg/mL]	Maximum Inhibition (%) [6] [%]	KD, cyno/KD, human [7]	Kd [7] [nM]	koff [7] [s⁻¹]	kon [7] [M⁻¹ s⁻¹]	IC50 [9] [µg/mL]	Maximum Inhibition (%) [9] [%]	reporter gene assay IC50 [10] [µg/mL]	reporter gene assay Maximum Inhibition (%) [10] [%]	Binder	also measured
0.0163	0.00861												PRO1057 (38_02_A04 sc01 scDb-i/33-03-G02 sc01 scDb-o/mxr HSA (23-13-A01-sc03, sk17sh4)) (other) DIQMTQSPSSLSASVGDRVTITCQASQSINDYLAWYQQKPGKAPKLLIYKASTLASGVPSRFSGSGSGTDFTLTISSLQPEDFATYYCQQGYIITDIDNVFGTGTKVTVLGGGGGSQVQLQESGPGLVKPSETLSLTCKVSGFSFSNSYWICWIRQPPGKGLEWIGCTFVGSSDSTYYANWAKGRVTISVDSSKNQFSLKLSSVTAADTAVYYCARHPSDAVYGYANNLWGQGTLVTVSSGGGGSGGGGSGGGGSGGGGSIQMTQSPSSLSASVGDRVTITCQASQSINNVLAWYQQKPGKAPKLLIYRASTLASGVPSRFSGSGSGTDFTLTISSLQPEDFATYYCQSSYGNYGDFGTGTKVTVLGGGGGSQVQLQESGPGLVKPSETLSLTCKVSGFSFSSGYDMCWIRQPPGKGLEWIGCVVAGSVDITYYASWAKGRVTISVDSSKNQFSLKLSSVTAADTAVYYCARKDAYSDAFNLWGQGTLVTVSSGGGGSGGGGSVVMTQSPSSLSASVGDRVTITCQASQIISSRSAWYQQKPGQPPKLLIYQASKLASGVPSRFSGSGSGTDFTLTISSLQPEDFATYYCQCTYIDSNFGAFGGGTKLTVLGGGGGSGGGGSGGGGSGGGGSEVQLVESGGGLVQPGGSLRLSCAASGFSFSSSYWICWVRQAPGKGLEWVGCVFTGDGTTYYASWAKGRFTISRDNSKNTVYLQMNSLRAEDTATYFCARPVSVYYYGMDLWGQGTLVTVSS	NF-AT potency assay IC50 (with HSA) [1]: 0.665 µg/mL; IC50 (read off the curve) [3]: ~0.02 µg/mL; fold higher IC50 in presence of human serum albumin [5]: ~2 fold
0.0129	0.0034	0.000159	0.00611	94.5	0.97	0.074	0.000182	2.46e+06	0.00345	99.8	0.0375	105	PRO830 (33-03-G02-sc01 scFv) (scFv, also called 33-03-G02 CDR) scFv: DIQMTQSPSSLSASVGDRVTITCQASQSINDYLAWYQQKPGKAPKLLIYKASTLASGVPSRFSGSGSGTDFTLTISSLQPEDFATYYCQQGYIITDIDNVFGTGTKVTVLGGGGGSGGGGSGGGGSGGGGSQVQLQESGPGLVKPSETLSLTCKVSGFSFSSGYDMCWIRQPPGKGLEWIGCVVAGSVDITYYASWAKGRVTISVDSSKNQFSLKLSSVTAADTAVYYCARKDAYSDAFNLWGQGTLVTVSS	NF-AT potency assay IC50 [1]: 0.0429 µg/mL; EC50 [8]: 0.0202 µg/mL
		< 1e-05	0.000977	95.4	< 5.58	0.0117	1.82e-05	1.55e+06	0.00036	99.8	0.00998	102	PRO1183 (33-03-G02-sc03 scFv) (scFv, also called 33_03_G02 sc03 Full) scFv: DFQLTQSPSSLSASVGDRVTITCQASQSINDYLAWYQQKPGKSPKLLIYKASTLASGVPSRFSGSGSGTDFTLTISSLQPEDFATYYCQQGYIITDIDNVFGTGTKVTVLGGGGGSGGGGSGGGGSGGGGSQSQLQESGPGLVKPSETLSLTCKASGFSFSSGYDMCWVRQPPGKGLEWIACVVAGSVDITYYASWAKGRVTISKDSSKNQVSLKLSSVTAADTAVYFCARKDAYSDAFNLWGQGTLVTVSS	Kd (Fc tagged human PDL1): < 0.0021 nM; kon (Fc tagged human PDL1): 4.77e+06 M⁻¹ s⁻¹; binding result (Fc tagged human PDL2): no binding (tested: 180 nM)
